In experiment [1] the target is recombinant human AXL, biotinylated (human) (UniProt P30530). The experiment in a line: SPR. A general note: SPR reads the build-up and loss of mass on a sensor chip optically.
Another experiment concerns the target T1, AXL in mouse lung tissue (mouse (endogenous in mouse lung tissue), UniProt Q00993 19-888).
T1 sequence: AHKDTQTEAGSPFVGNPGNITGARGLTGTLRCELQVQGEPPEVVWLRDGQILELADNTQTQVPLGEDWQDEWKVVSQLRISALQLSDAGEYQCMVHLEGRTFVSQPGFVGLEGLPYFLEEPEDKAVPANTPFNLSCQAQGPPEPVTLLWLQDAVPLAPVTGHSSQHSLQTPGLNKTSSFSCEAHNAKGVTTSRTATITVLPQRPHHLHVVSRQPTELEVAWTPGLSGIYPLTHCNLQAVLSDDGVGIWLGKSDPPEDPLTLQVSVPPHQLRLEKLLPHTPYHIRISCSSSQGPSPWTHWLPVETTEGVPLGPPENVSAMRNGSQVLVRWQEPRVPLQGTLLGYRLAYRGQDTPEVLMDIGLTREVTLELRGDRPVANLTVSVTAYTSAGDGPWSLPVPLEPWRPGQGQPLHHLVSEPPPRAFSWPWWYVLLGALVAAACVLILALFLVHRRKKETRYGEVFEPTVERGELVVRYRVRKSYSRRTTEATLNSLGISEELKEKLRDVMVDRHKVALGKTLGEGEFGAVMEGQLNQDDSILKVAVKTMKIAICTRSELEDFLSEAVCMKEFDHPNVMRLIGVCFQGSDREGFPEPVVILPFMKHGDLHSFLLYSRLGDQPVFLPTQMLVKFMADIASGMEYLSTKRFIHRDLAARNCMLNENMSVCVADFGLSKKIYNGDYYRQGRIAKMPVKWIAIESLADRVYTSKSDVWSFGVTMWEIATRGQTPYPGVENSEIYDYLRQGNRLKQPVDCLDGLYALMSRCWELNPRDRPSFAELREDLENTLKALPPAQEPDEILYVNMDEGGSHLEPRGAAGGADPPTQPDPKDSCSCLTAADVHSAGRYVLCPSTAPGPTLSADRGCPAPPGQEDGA
The experiment in a line: FRET or BRET. (Bioluminescence resonance energy transfer reports proximity on the nanometre scale.)

Chain of recombinant human AXL, biotinylated (human) (P30530 26-894): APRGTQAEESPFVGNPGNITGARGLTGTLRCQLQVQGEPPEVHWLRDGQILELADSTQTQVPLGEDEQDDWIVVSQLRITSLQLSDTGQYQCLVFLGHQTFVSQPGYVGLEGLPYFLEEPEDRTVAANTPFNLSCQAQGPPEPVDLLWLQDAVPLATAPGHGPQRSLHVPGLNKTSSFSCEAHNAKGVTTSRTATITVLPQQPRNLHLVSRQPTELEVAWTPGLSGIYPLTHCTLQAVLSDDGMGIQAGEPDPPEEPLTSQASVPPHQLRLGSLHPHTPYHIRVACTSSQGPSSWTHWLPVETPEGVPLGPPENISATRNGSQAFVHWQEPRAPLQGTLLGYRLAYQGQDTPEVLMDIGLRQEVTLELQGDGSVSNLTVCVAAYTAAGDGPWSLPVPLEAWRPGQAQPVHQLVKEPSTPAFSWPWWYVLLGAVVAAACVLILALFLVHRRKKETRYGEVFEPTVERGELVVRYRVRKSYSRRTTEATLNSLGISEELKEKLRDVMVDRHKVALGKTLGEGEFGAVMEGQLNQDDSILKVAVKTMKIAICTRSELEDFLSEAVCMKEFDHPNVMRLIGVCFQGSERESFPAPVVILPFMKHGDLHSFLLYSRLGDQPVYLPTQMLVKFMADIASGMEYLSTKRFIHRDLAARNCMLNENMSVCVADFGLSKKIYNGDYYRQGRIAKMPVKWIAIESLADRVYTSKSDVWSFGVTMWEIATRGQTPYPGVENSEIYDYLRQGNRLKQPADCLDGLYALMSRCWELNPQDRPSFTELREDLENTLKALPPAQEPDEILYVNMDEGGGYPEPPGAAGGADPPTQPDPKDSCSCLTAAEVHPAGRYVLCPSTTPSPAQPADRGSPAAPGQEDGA

On to “recombinant human GAS6 (from UniProt Q14393 31-678) (ligand)”, for which the Kd in experiment [1] was 0.11 nM.

Regarding “recombinant human PROS1 (from UniProt P07225 42-676) (ligand)”, in experiment [1], the Kd worked out at 52.1 nM.

B1: GAS6 in mouse lung tissue (ligand)
chain: VLLRAREAAQFLRPRQRRAYQVFEEAKQGHLERECVEEVCSKEEAREVFENDPETEYFYPRYQECMRKYGRPEEKNPDFAKCVQNLPDQCTPNPCDKKGTHICQDLMGNFFCVCTDGWGGRLCDKDVNECVQKNGGCSQVCHNKPGSFQCACHSGFSLASDGQTCQDIDECTDSDTCGDARCKNLPGSYSCLCDEGYTYSSKEKTCQDVDECQQDRCEQTCVNSPGSYTCHCDGRGGLKLSPDMDTCEDILPCVPFSMAKSVKSLYLGRMFSGTPVIRLRFKRLQPTRLLAEFDFRTFDPEGVLFFAGGRSDSTWIVLGLRAGRLELQLRYNGVGRITSSGPTINHGMWQTISVEELERNLVIKVNKDAVMKIAVAGELFQLERGLYHLNLTVGGIPFKESELVQPINPRLDGCMRSWNWLNGEDSAIQETVKANTKMQCFSVTERGSFFPGNGFATYRLNYTRTSLDVGTETTWEVKVVARIRPATDTGVLLALVGDDDVVPISVALVDYHSTKKLKKQLVVLAVEDVALALMEIKVCDSQEHTVTVSLREGEATLEVDGTKGQSEVSTAQLQERLDTLKTHLQGSVHTYVGGLPEVSVISAPVTAFYRGCMTLEVNGKILDLDTASYKHSDITSHSCPPVEHATP
In the case of B1, the “FRET efficiency (%Ef) of one coincident region” value in the experiment with AXL in mouse lung tissue came out at 6.96%.

For orientation: Kd means the constant that tells how readily two partners part at equilibrium.
